Measured values published in the Human Domainome abundance scans (Beltran et al. 2025).

B1: Lysine-specific demethylase 5C, residues 319 to 373; numbered along this chain, P41229 (parent)
chain: AQFIESYVCRMCSRGDEDDKLLLCDGCDDNYHIFCLLPPLPEIPKGVWRCPKCVM

Variants of: B1
Assay: abundance fitness (aPCA) (normalised: wild type 0, dead -1); higher = more abundant; growth selection in yeast, the domain comes from the species named
Conditions: Homo sapiens

Abundance fitness of substitutions, site by site:
I4: R -0.3, N -0.35, Q 0.451, M 0.115, K -0.033, T 0.201, V -0.019, G -0.302
M55: P 0.446, T -0.183, A -0.035
I43: W -0.202, V -0.137, M 0.156, K -0.101, E -0.057, L 0.101, Y -0.333, A -0.281, F -0.21, H -0.139
D19: H -0.032, K 0.064, F -0.103, E -0.091, Y -0.335, M -0.254
C50: Y -0.761, L -0.702, R -0.926, E -0.992, D -0.841, G -1.01, M -1.17, V -1.05
P51: A -0.258, G -0.494, L -0.671, Q -0.136, C -0.427, K 0.131, M -0.092
Y7: T 0.199, P -0.073, W -0.266, I -0.023, M 0.078, S 0.139, L -0.057, F -0.14, R 0.14, V -0.121
I33: L -0.496
L37: E -0.073, C -0.137, V -0.083, T -0.03, N 0.172, M 0.054, A -0.02, R 0.092, K 0.277
C53: L -0.909, P -0.744, K -0.921, D -0.889
D16: K -0.265, V -0.029, N 0.131, Y -0.115, F 0.277, Q -0.16
G46: L -0.191, D 0.043, N -0.405, M -0.235, V -0.105, W -0.464, A -0.059, C -0.578, H 0.132
M11: K 0.169, N 0.045, E 0.171, V -0.135, A -0.079, R 0.073
L36: W -0.237, V -0.118, H 0.006, R -0.732, S -0.157, G -0.688, E -0.551, M -0.275, Q -0.555, P -0.613
E42: S -0.273, T 0.068, Q 0.033, H -0.44, P -0.611, C -0.245, V -0.157, R -0.072, L -0.431
N30: G 0.052, S -0.068, P -0.088, H -0.176, R 0.071, C 0.006
P38: I -0.62, R -0.116, Q 0.178, F -0.564, V -0.1, L -0.237, W -0.491, T -0.285, E -0.191, H -0.12, G -0.454
R10: D -0.384, V -0.137, P -0.394, T 0.082, Q -0.609, M -0.036
S13: L 0.044, D -0.042, V -0.121, P -0.13, A -0.231, T -0.035, I -0.029
V8: K 0.254, C -0.258, F -0.28, G -0.106, E -0.266, Y -0.157, T -0.039, L -0.243, N 0.083, Q -0.11
V54: E -0.367, C -0.097, G -0.27, I 0.017, L -0.196, Q -0.54, N -0.262
D28: A 0.092, P 0.259, N 0.046, V -0.527, W -0.244, T -0.494, I 0.327, E -0.102, L -0.294
P41: I -0.134, T -0.1, W -0.36, S 0.047
L22: A -0.243, P -0.897, C -0.052, M 0.05, Y -1.07, Q -0.561, E -0.523, N -0.4, W -0.838
K20: G -0.666, P -0.043, I -0.489, F -0.16, A -0.065, C -0.379, V -0.253, L -0.087
Y31: Q -0.727, T -0.678, F -0.163
G26: D -0.034, L -0.071, K 0.133, M -0.178, T 0.004, H 0.092, I -0.21, V -0.217
C35: S -0.597, K -0.947, F -0.556, G -0.9
W48: H -0.811, Q -0.566, N -0.853, R -0.611, D -0.686, A -0.59, I -0.14
K45: E -0.138, Q -0.277, Y -0.553
C27: N -0.806, R -0.759, W -1.06, G -0.825
F34: N 0.095, M -0.165, W -0.087, T 0.039, V -0.078, A -0.162
D29: E 0.017, F -0.128, R 0.004
L23: N 0.099, A 0.044, F -0.405, R 0.166, M 0.235, S 0.148, H -0.302, Y -0.141, P -0.017
P39: I -0.076, G -0.217, F -0.667, Q -0.276, E -0.025, L -0.473, K 0.148
Q2: W -0.057, Y -0.053, I 0.186, A -0.273, V -0.153, P -0.141
K52: T 0.018, N -0.032, E -0.23, D 0.095, L -0.282, G -0.024, P 0.049, M -0.611, W -0.364, A 0.02, V -0.123
L21: T -0.164, P -0.683, V -0.348, A -0.426, C -0.304, F -0.078
G15: S 0.155, N -0.231
D25: N -0.293, K -0.199, Y -0.44, W -0.383
D18: N -0.087, A 0.112, E 0.042, P 0.176, W 0.035, V 0.034
C9: R -0.827, H -0.798, A -0.797, G -0.655, F -0.659
E17: V 0.22, W -0.176, P -0.1
H32: E -0.945, R -0.675, A -0.756, M -1.02, K -0.97, Y -0.972
C12: F -0.731, I -1.14, Y -0.87, L -0.344, H -0.825, W -0.853, G -0.756, K -0.435, N -0.713
F3: M 0.095, D -0.418, K 0.016, C -0.193, A -0.12, S 0.06, E -0.114, H -0.095, Y -0.043, T -0.046
R49: A -0.262, Q 0.106, I -0.176, G -0.4
V47: A -0.241, K 0.154, Y -0.058, W -0.473, G -0.061, F 0.082, H -0.064, C -0.213, Q 0.208
A1: S -0.244, I 0.146, V -0.297, D -0.009
S6: G -0.042, K -0.295, P -0.097, R 0.001, E -0.08, T 0.148, W -0.414
E5: N 0.275, H -0.263, M 0.145, R 0.046, C 0.046
